Reference: patent US20260176378A1 (DYAX, published 2026)

B1: M27-B12 (Fab, V domains shown)
VH: EVQLLESGGGLVQPGGSLRLSCAASGFTFSWYQMMWVRQAPGKGLEWVSSISPSGGITEYADSVKGRFTISRDNSKNTLYLQMNSLRAEDTAVYYCARDRSSGWYYYGMDVWGQGTTVTVSS
VL: QYELTQPPAVSVSPGQTATITCSGDKLGDEYAAWYQQKPGQSPVLVIYQDRKRPSGIPERFSGSNFGNTATLTITGTQVMDEADYYCQAWGKRNVVFGGGTKLTVL
B2: M27-E03 (Fab, V domains shown)
VH: EVQLLESGGGLVQPGGSLRLSCAASGFTFSSYMMHWVRQAPGKGLEWVSGIYPSGGWTDYADSVKGRFTISRDNSKNTLYLQMNSLRAEDTATYYCARLVAGLDAFDIWGQGTMVTVSS
VL: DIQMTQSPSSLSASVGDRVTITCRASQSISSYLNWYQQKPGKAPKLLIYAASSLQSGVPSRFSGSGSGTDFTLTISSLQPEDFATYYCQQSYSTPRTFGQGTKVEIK
B3: M27-F04 (Fab, V domains shown)
VH: EVQLLESGGGLVQPGGSLRLSCAASGFTFSWYPMTWVRQAPGKGLEWVSSIGPSGGQTIYADSVKGRFTISRDNSKNTLYLQMNSLRAEDTAVYYCTTEYGDYGGGFDPWGQGTLVTVSS
VL: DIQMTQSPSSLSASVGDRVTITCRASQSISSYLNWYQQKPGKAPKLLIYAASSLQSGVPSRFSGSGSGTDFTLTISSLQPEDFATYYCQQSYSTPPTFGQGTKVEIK
B4: M27-F11 (Fab, V domains shown)
VH: EVQLLESGGGLVQPGGSLRLSCAASGFTFSSYHMMWVRQAPGKGLEWVSSIYPSGGATMYADSVKGRFTISRDNSKNTLYLQMNSLRAEDTAMYYCARDGYHYGDYTYFQHWGQGTLVTVSS
VL: DIQMTQSPSFLSASVGDRVTITCRASQGISSYLAWYQQKPGKAPKLLIYAASSLQSGVPSRFSGSGSGTDFTLTISSLQPEDFATYYCQQSYNTLRTFGPGTKVDLK
B5: M27-G01 (Fab, V domains shown)
VH: EVQLLESGGGLVQPGGSLRLSCAASGFTFSLYRMFWVRQAPGKGLEWVSSIWSSGGPTMYADSVKGRFTISRDNSKNTLYLQMNSLRAEDTAVYYCAREYPSTYYFDYWGQGTLVTVSS
VL: DIQMTQSPSSLSASVGDRVTITCRASQSISTYLNWYQQKPGKAPKLLIYGASSLQSGVPSRFSGSGSGTDFTLTISSLQPEDFTIYYCQQSYSDPYTFGQGTKLDIK
B6: M27-G04 (Fab, V domains shown)
VH: EVQLLESGGGLVQPGGSLRLSCAASGFTFSAYYMVWVRQAPGKGLEWVSYISPSGGQTQYADSVKGRFTISRDNSKNTLYLQMNSLRAEDTAVYYCAREAISSSSFDYWGQGTLVTVSS
VL: DIQMTQSPSSLSASVGDRVTITCRASQRISYYLTWYQQKPGKVPKLLIYAASSLESGVPSRFSGSGSGTDFTLTISNLQPEDFATYYCQQAFSTPFTFGGGTKVEIK
B7: M27-G09 (Fab, V domains shown)
VH: EVQLLESGGGLVQPGGSLRLSCAASGFTFSEYDMAWVRQAPGKGLEWVSYIVSSGGFTSYADSVKGRFTISRDNSKNTLYLQMNSLRAEDTAVYYCTTWAGWIAAADYWGQGTLVTVSS
VL: DIQMTQSPSSVSASVGDRITITCRTRQSISNYLNWYQQKPGEPPKLLIFAASSLQSGVPSRFSGSGTGTEFTLTISSLQPEDLAIYYCQQSYDIPFTFGQGTKLEIK
B8: M27-H10 (Fab, V domains shown)
VH: EVQLLESGGGLVQPGGSLRLSCAASGFTFSAYQMAWVRQAPGKGLEWVSVIYSSGGYTDYADSVKGRFTISRDNSKNTLYLQMNSLRAEDTAVYYCARHNWNDGAFDIWGQGTMVTVSS
VL: DIQMTQSPSSLSASVGDRVTITCRASQSISNYLNWYQQKPGKAPKFLIYAASSLQSGVPSRFSGSGSGTDFTLSISSLQPEDFATYYCQQSYSTPQTFGQGTKVEMK
B9: M28-A01 (Fab, V domains shown)
VH: EVQLLESGGGLVQPGGSLRLSCAASGFTFSWYAMHWVRQAPGKGLEWVSGIYSSGGYTKYADSVKGRFTISRDNSKNTLYLQMNSLRAEDTAVYYCARDLSNGDDVFDIWGQGTMVTVSS
VL: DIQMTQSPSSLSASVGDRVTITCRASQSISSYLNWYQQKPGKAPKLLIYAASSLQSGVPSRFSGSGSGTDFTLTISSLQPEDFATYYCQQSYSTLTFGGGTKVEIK
B10: M28-C03 (Fab, V domains shown)
VH: EVQLLESGGGLVQPGGSLRLSCAASGFTFSYYQMGWVRQAPGKGLEWVSSIYPSGGMTDYADSVKGRFTISRDNSKNTLYLQMNSLRAEDTAVYYCTRGSPWGDDAFDIWGQGTMVTVSS
VL: DIQMTQSPSSLSASVGDRVTITCRASQSINFYLNWYQQKPGKAPKLLIYVASSLESGVPSRFSGSASGTEFTLTISSLQPEDFATYYCLQSYSAPYTFGQGTKVEIT
B11: M28-D02 (Fab, V domains shown)
VH: EVQLLESGGGLVQPGGSLRLSCAASGFTFSWYPMQWVRQAPGKGLEWVSYIYPSGGGTDYADSVKGRFTISRDNSKNTLYLQMNSLRAEDTATYYCATSSGWLGDAFDIWGQGTMVTVSS
VL: DIQMTQSPSSLSASEGDMVTITCRTSRRIGTYLNWYQQKPGKAPKLLIYGASSLQSGVPSRFSGSGSGTDFTLTVSSLQPEDVGTYYCQQSFSSPWTFGPGTKVEIK
B12: M28-D12 (Fab, V domains shown)
VH: EVQLLESGGGLVQPGGSLRLSCAASGFTFSWYTMHWVRQAPGKGLEWVSVIYPSGGPTSYADSVKGRFTISRDNSKNTLYLQMNSLRAEDTATYYCARDGSGSYLGFDYWGQGTLVTVSS
VL: DIQMTQSPSSLSASVGDRVTITCRASQSIATYLNWYQQKPGRAPKLLIYAASSLQSGVPSRFVGGGSGSGTHFTLTISSLQPEDFATYYCQQSYSTRETFGQGTKVEIK
B13: M28-E01 (Fab, V domains shown)
VH: EVQLLESGGGLVQPGGSLRLSCAASGFTFSSYPMGWVRQAPGKGLEWVSRISSSGGMTIYADSVKGRFTISRDNSKNTLYLQMNSLRAEDTAVYYCARDDWNVGMDVWGQGTTVTVSS
VL: DIQMTQSPSSLSASVGDRVTITCRASQSISSYLNWYQQKPGKAPKLLIYAASSLQSGVPSKFSGSGSGTDYTLTISSLQPEDFATYYCQQTYTTPWTFGQGTKVEIK
B14: M28-E11 (Fab, V domains shown)
VH: EVQLLESGGGLVQPGGSLRLSCAASGFTFSLYDMTWVRQAPGKGLEWVSGISSSGGVTIYADSVKGRFTISRDNSKNTLYLQMNSLRAEDTAVYYCARTYYYDSSGYADAFDIWGQGTMVTVSS
VL: DIQMTQSPSSVSASVGDRVTINCRASQDISNWLAWYQQKPGKAPNLLIYAASSLQTGAPSRFSGSGSGTDFTLTISSLQPEDFGTYVCQQSYSLPWTFGLGTKVEVR
B15: M28-F01 (Fab, V domains shown)
VH: EVQLLESGGGLVQPGGSLRLSCAASGFTFSVYLMHWVRQAPGKGLEWVSGISPSGGYTQYADSVKGRFTISRDNSKNTLYLQMNSLRAEDTAVYYCARPGGLDAFDIWGQGTMVTVSS
VL: DIQMTQSPSSLSASVGDRVTITCRASQSINTYLNWYQQKPGKAPKVLIHAASTLESGVPSRFSGSGSGTDFTLTISSLQPEDFATYYCQQSYSTPPTFGQGTKVEIK
B16: M28-F07 (Fab, V domains shown)
VH: EVQLLESGGGLVQPGGSLRLSCAASGFTFSDYTMYWVRQAPGKGLEWVSSIVPSGGHTLYADSVKGRFTISRDNSKNTLYLQMNSLRAEDTAVYYCAKDHLSSWYGGFFDYWGQGTLVTVSS
VL: DIQMTQSPSSVSASVGDRVTITCRASQGISSWLAWYQQKPGKAPKLLIYATSGLQSGVPSRFSGSGSGTDFTLTISSLQPEDFATYYCQQAKSFPLTFGGGTRVEIK
B17: M29-C07 (Fab, V domains shown)
VH: EVQLLESGGGLVQPGGSLRLSCAASGFTFSGYDMMWVRQAPGKGLEWVSVISSSGGNTAYADSVKGRFTISRDNSKNTLYLQMNSLRAEDTAVYYCARESSGLYYFDYWGQGTLVTVSS
VL: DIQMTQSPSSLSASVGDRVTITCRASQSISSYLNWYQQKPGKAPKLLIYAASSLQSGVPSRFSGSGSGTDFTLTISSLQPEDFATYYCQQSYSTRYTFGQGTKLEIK
B18: M29-D10 (Fab, V domains shown)
VH: EVQLLESGGGLVQPGGSLRLSCAASGFTFSWYPMYWVRQAPGKGLEWVSSIGSSGGPTPYADSVKGRFTISRDNSKNTLYLQMNSLRAEDTAVYYCARWADYGGSLDYWGQGTLVTVSS
VL: DIQMTQSPSSLSASVGDTVSITCRASQSITIYLNWYQHKPGKAPNLLIYGASNLHSGVPSRFSGSGSGTDFTLTISSLQPEDFATYYCQQSYDTPLTFGGGTKVEIK
B19: M29-E02 (Fab, V domains shown)
VH: EVQLLESGGGLVQPGGSLRLSCAASGFTFSRYPMMWVRQAPGKGLEWVSVIYPSGGDTFYADSVKGRFTISRDNSKNTLYLQMNSLRAEDTAVYYCASGDDYLWEAAVYWGQGTLVTVSS
VL: QSVLTQPPSVSEAPRQRVTISCSGSSSNIGNNAVSWYQQLPGKAPKLLIYYDDLLPSGVSDRFSGSKSGTSASLAISGLRSEDEADYYCAAWDDSLNGFVFGTGTKVTVL
B20: M29-G08 (Fab, V domains shown)
VH: EVQLLESGGGLVQPGGSLRLSCAASGFTFSYYHMWWVRQAPGKGLEWVSGISPSGGFTFYADSVKGRFTISRDNSKNTLYLQMNSLRAEDTAVYYCARDYYYDSSGYSPLGYWGQGTLVTVSS
VL: DIQMTQSPATLSASPGETVTLSCRASQNIGNDVAWYRQRPGQAPRLLIHHASTRAYGIPARLRGSGSATEFTLTITSLEPEDFAIYYCQQFYDWPAHTFALGTRLEIKR
B21: M29-G10 (Fab, V domains shown)
VH: EVQLLESGGGLVQPGGSLRLSCAASGFTFSFYKMIWVRQAPGKGLEWVSSISSSGGSTQYADSVKGRFTISRDNSKNTLYLQMNSLRAEDTAVYYCARDRVDLGYLDYWGQGTLVTVSS
VL: DIQMTQSPSSLSSSVGDSATITCRASQSISIYLNWYQQKPGKAPKILIYGASQLESGVPSRFSGSGSGTDFTLTVSGLQPEDFATYWCQQSYNVPYTFGQGTKLEIK
B22: M74-A07 (Fab, V domains shown)
VH: EVQLLESGGGLVQPGGSLRLSCAASGFTFSQYLMMWVRQAPGKGLEWVSSIYPSGGYTSYADSVKGRFTISRDNSKNTLYLQMNSLRAEDTAVYYCARVSTAVADNDYWGQGTLVTVSS
VL: DIQMTQSPSSLSASVRDRVTITCRTSQNINTYLNWYYQAPGRAPKLLIFGVSSLHRGVSSRFSGSGDGTEFTLTISSLQPEDIGTYFCQQSYSSPWTFGQGTKVEIK
B23: M76-F02 (Fab, V domains shown)
VH: EVQLLESGGGLVQPGGSLRLSCAASGFTFSLYDMNWVRQAPGKGLEWVSGISPSGGQTMYADSVKGRFTISRDNSKNTLYLQMNSLRAEDTAVYYCARQPMISAFDIWGQGTMVTVSS
VL: DIQMTQSPSSLSASVGDRVTITCRASQTIDNYLHWYQQKPGKAPKVLIHDASSLQSGVPPRFSGSGSGTDFTLTISSLQPEDFATYYCQQSYDTPQYTFGQGTKLEIK
B24: M76-G02 (Fab, V domains shown)
VH: EVQLLESGGGLVQPGGSLRLSCAASGFTFSLYAMWWVRQAPGKGLEWVSYISSSGGFTSYADSVKGRFTISRDNSKNTLYLQMNSLRAEDTAVYYCARYRVGVAATDYWGQGTLVTVSS
VL: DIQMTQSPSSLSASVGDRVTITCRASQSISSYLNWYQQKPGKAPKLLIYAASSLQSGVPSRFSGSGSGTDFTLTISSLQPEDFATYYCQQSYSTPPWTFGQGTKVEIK

Each binder was assayed against T1, human plasma kallikrein (human, UniProt P03952 20-390; P03952 391-638) (assay: ELISA, biotinylated pKal signal over streptavidin background).
T1 construct: two disulfide-linked chains; NP_000883.2; also called pKal; hpKal
T1 sequence (P03952 20-390 limits assumed, chain 1 of 2): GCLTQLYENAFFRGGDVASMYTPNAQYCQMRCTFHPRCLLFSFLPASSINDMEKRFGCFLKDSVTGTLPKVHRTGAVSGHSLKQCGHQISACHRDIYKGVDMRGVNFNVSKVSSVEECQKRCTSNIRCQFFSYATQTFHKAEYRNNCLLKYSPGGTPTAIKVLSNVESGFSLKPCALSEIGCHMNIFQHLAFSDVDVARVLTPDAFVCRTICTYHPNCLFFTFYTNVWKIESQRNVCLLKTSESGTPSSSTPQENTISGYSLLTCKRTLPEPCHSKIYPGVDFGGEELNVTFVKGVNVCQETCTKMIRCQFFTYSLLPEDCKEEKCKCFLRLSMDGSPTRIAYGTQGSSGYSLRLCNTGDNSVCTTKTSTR
T1 sequence (P03952 391-638 limits assumed, chain 2 of 2): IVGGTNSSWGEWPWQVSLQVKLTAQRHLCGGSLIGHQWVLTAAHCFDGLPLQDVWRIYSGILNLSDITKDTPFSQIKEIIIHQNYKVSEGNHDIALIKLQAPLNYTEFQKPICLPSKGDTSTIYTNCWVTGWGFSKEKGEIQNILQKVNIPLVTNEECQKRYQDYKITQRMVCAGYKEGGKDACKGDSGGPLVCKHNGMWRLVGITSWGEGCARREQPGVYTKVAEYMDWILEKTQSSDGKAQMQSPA

Row | Binder | ELISA (T/B)
1 | B1 | 2.3
2 | B2 | 35.9
3 | B3 | 10.5
4 | B4 | 10
5 | B5 | 31.4
6 | B6 | 4.1
7 | B7 | 2.2
8 | B8 | 12.4
9 | B9 | 19
10 | B10 | 2.2
11 | B11 | 3.7
12 | B12 | 41.6
13 | B13 | 41
14 | B14 | 29.3
15 | B15 | 1.5
16 | B16 | 33
17 | B17 | 5.2
18 | B18 | 23.6
19 | B19 | 2
20 | B20 | 40.4
21 | B21 | 16.4
22 | B22 | 8.6
23 | B23 | 6.4
24 | B24 | 10.3
